Results from the supplement of paper PMC12764529.
± gives the half width of the 95% confidence interval.

Legend:
[1] = folding stability dG unfold from trypsin proteolysis; higher = more stable
How it was run: (§1)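 Unfolding free energy was derived, per protease or combined, against a sequence-predicted unfolded-state K50 and a shared folded-state K50, starting from K50 inferred by Bayesian fitting of sequencing counts. Digestion with trypsin and chymotrypsin was carried out on designed mini-proteins under 80 residues without cysteine in a PA-tagged cDNA display construct. Only designs with AlphaFold2 dimer inter-PAE above 15 were kept.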

[2] = folding stability dG unfold from chymotrypsin proteolysis; higher = more stable
How it was run: as §1

[3] = folding stability dG unfold (combined trypsin and chymotrypsin); higher = more stable
How it was run: as §1

Sequence	folding stability dG unfold [1] [kcal/mol]	folding stability dG unfold [2] [kcal/mol]	folding stability dG unfold [3] [kcal/mol]
SAGGMKTVTIEYWGSLPDAVVLAKKAVEEAAKNKGKTVVTLYVWEGEPDENGVPRWKPLGKYVFVVDASAGG [r13_974_TrMRF]	2.44 ± 0.092	3.477 ± 0.034	3.19 ± 0.1
SAGGMKVATVTLLTRDPSSDRTFEVTVEVPDDIVEKGDIEEAIARAKQLAEERGYPILEVEVEVKEPPSAGG [r13_954_JUSTAS]	1.13 ± 0.046	0.625 ± 0.12	0.922 ± 0.12
SAGGMKVEIEIEEEPETGKVKITIKIDDVEIEIEATEEEIEKLIEEIEKIKAEPKLTEDGKLVPVIGSAGGS [r8_332_TrMRF]	1.94 ± 0.24	1.8 ± 0.29	1.92 ± 0.3
SAGGMKVEIIRKDGKKVTLEGMTLEELLALLPEGEEYVIKVEVTVVDEKTKKKETVELTFTVPVEDLSAGGS [r16_806_TrROS_Hall]	1.18 ± 0.047	2.47 ± 0.053	2.04 ± 0.075
SAGGMKVEVEVDPETGELYLKIYFPETGEVALVKIDPKTKTAEVVGSTDFVKEALPELGINNPTLVPGSAGG [r13_511_TrMRF]	1.06 ± 0.051	1.59 ± 0.088	1.43 ± 0.061
SAGGMKVEVVPGGGAVVVEIPFPPTPATARLVISFHPDGTVTADLEPHPELPAELRAKLVELARELLGSAGG [r13_139_TrMRF]	1.6 ± 0.02	2.31 ± 0.032	2.07 ± 0.048
SAGGMKVYKISFPNATVTYEEETGKVTINPPDGSTKVIEISPDISIEEVAKKLAEELGFTEATITPEPSAGG [r13_852_JUSTAS]	1.59 ± 0.095	1.36 ± 0.057	1.48 ± 0.068
SAGGMKVYKTPDKITIELTHPETGEKAKGTYTPSTGKMTITYPNKLTVTISVDSNGNLTPVEKKPLLSAGGS [r16_127_JUSTAS]	0.592 ± 0.046	0.577 ± 0.1	0.626 ± 0.069
SAGGMKYLIKIEVDGKEIEIEAESLEEAEELAKKLEEEGIEIEVKKIEIYELPEEEEEEEEEKKKKESAGGS [r8_336_TrROS_Hall]	0.249 ± 0.11	2.24 ± 0.08	1.85 ± 0.21
SAGGMKYVLKIEITFKKPSGPPEKKIILVEFDPDFPDIPLEEAAERVLNEIAPKYGDEAKVSEISPVSAGGS [r8_101_TrMRF]	1.3 ± 0.054	2.35 ± 0.066	2 ± 0.13
SAGGMLIVRITVDLTFPVIHPDNRPSLVSVPLPITLPFSTPEEARAFAEALSKLFDAPVSLEVLPPDGSAGG [r13_320_TrMRF]	3.62 ± 0.13	4.4 ± 0.094	4.16 ± 0.12
SAGGMLKFTDPKTGNEYTVTEYDPNTGVYLVTTTYPDGTTTTREFPGSLEDIVKHLEEEGYPTTVVGSAGGS [r16_748_JUSTAS]	2.83 ± 0.12	3.38 ± 0.1	3.24 ± 0.069
SAGGMLKIKVELFYPDGSTRTLPVPEEIQKEIVEALKKGEKIPEKPKKELEDIAKKEGYTIKIIELLSAGGS [r8_159_JUSTAS]	0.751 ± 0.051	1.41 ± 0.11	1.3 ± 0.18
SAGGMLLVEAPDGTTVEVTPEQAADLTPGAVVRHPSGDVWTYNPANDETVRIPWVSPAEVERAVAELSSAGG [r13_962_JUSTAS]	-0.0974 ± 0.038	-0.361 ± 0.12	-0.132 ± 0.043
SAGGMLPDTLKLAREIAKELGINRIEPLESGEVVLYLPEDKVIVIDTINGIPRVRIYNKDEWIEIPISAGGS [r16_296_TrMRF]	3.65 ± 0.096	4.56 ± 0.08	4.26 ± 0.15
SAGGMLVRVRFRIVEPGTGEPFEFEALLFFGEDGSFELVFPDGTRLLFPPEARIEVLDAELLDPDEASAGGS [r16_223_TrMRF]	3.96 ± 0.19	4.9 ± 0.11	4.61 ± 0.2
SAGGMLVTFTTPDGKTVTVEVDSLEEAKKVIAEKLGLPPDTVLDVTVTDPVTGEVTSETVTIPVPVPESAGG [r13_145_JUSTAS]	3.3 ± 0.09	3.99 ± 0.07	3.96 ± 0.049
